Laboratory results published in patent publication US20150093336A1 (VIB VZW, published 2015).

T1: Recombinant human MMR (R&D systems) (human, UniProt P22897 19-1383)
T1 construct: Antigen of the PE-ELISA and the SPR; also called hMMR; recombinant hMMR
T1 sequence: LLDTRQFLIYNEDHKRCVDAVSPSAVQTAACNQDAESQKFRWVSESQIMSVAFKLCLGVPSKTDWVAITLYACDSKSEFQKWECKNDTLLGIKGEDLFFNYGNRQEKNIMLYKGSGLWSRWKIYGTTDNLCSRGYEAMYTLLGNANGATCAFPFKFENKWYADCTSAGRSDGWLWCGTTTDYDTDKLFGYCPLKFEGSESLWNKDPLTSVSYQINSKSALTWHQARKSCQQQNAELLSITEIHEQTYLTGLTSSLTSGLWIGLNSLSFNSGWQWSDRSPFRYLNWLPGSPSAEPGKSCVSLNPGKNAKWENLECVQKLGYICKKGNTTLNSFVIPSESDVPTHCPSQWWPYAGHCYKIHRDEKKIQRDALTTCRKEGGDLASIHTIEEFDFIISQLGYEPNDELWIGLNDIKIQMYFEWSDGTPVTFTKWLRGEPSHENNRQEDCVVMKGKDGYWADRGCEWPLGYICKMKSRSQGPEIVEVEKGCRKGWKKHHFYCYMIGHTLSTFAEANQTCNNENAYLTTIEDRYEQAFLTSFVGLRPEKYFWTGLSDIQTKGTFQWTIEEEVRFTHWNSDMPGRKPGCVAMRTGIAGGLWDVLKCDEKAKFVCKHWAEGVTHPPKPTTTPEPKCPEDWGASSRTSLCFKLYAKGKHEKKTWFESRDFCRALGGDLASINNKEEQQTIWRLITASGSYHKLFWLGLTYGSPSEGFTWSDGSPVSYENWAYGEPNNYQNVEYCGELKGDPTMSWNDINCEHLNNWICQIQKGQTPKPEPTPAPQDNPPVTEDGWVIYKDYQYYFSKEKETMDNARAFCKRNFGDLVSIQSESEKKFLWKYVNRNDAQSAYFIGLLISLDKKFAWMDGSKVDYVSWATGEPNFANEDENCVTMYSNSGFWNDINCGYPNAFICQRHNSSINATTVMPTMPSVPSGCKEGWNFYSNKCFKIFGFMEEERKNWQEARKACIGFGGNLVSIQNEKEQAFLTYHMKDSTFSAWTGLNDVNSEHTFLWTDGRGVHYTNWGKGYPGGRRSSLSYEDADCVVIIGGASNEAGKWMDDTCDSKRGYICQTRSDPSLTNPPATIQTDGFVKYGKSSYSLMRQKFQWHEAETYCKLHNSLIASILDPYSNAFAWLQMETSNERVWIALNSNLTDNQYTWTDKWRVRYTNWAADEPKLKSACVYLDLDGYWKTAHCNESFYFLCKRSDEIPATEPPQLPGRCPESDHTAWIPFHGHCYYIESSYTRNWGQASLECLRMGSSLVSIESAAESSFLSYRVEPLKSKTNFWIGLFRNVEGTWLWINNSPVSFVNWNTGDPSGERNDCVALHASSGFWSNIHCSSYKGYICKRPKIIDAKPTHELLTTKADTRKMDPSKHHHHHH

T2: Recombinant mouse MMR (R&D systems) (mouse, UniProt Q61830 20-1388)
T2 construct: Antigen of the PE-ELISA and the SPR; also called mMMR; recombinant mMMR
T2 sequence: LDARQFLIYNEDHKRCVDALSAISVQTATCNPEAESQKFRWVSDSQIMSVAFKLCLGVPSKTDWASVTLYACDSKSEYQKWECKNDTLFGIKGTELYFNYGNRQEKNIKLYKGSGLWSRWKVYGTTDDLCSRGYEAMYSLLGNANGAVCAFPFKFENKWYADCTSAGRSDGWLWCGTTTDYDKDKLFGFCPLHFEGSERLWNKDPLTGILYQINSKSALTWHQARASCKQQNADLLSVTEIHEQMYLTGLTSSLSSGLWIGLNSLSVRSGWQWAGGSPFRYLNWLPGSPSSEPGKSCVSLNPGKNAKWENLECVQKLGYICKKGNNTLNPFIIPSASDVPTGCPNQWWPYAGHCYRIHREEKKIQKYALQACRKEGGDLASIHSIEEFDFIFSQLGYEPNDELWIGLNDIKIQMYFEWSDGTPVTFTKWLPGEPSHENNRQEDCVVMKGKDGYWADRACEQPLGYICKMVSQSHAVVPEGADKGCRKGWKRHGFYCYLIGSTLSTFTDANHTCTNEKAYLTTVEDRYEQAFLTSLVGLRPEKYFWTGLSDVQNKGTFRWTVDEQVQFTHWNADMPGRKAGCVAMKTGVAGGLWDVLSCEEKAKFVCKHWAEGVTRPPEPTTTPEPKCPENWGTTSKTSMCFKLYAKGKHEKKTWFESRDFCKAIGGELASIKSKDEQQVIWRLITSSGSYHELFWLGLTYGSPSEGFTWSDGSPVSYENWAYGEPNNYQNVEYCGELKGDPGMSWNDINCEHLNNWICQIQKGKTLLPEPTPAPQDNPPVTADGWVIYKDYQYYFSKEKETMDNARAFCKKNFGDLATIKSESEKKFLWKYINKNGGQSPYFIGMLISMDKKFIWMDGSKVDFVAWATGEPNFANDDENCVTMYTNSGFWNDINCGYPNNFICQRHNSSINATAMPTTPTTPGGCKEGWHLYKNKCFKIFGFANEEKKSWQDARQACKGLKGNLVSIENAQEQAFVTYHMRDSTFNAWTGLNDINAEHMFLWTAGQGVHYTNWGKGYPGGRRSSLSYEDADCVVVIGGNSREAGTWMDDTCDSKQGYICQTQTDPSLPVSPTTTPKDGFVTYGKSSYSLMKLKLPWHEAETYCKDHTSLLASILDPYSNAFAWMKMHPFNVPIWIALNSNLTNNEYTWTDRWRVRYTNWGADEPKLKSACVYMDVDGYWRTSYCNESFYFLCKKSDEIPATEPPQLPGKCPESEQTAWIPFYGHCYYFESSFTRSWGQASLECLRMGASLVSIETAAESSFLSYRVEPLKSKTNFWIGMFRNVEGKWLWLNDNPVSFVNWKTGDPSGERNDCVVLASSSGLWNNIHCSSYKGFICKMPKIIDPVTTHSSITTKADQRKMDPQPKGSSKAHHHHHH


Tests used:
[1] = molecular target: T1, Recombinant human MMR (R&D systems); test: PE-ELISA: periplasmic extract of the clone on plate-coated human MMR, OD405; background = irrelevant milk-blocking proteins
Experimental: (§1) Specific sdAb phages were enriched by several consecutive rounds of in vitro selection on antigen coated to wells of microtiter plates (Nunc). For isolation of human/mouse MMR cross-reactive Nbs, screening was performed using human and mouse MMR alternatingly. Bound phage particles were eluted with 100 mM triethylamine (pH 11.0), immediately neutralized with 1 M Tris-HCl (pH 7.4) and used to infect E. coli TG1 cells. Individual colonies were picked and expression of recombinant sdAb-M13 protein III by addition of 1 mM isopropyl-β-D-thiogalac-topyranoside (IPTG). The periplasmic extract of each clone was subsequently tested in ELISA for human MMR recognition with non-specific antigen coated wells serving as a negative control. Human/mouse MMR cross-reactive Nbs were also screened in a similar fashion against mouse MMR, only clones reactive with both human and mouse antigens were withheld as cross-reactive Nbs. Each ELISA was performed on plates coated with 1 μg/ml MMR in 100 mM NaHCO₃ buffer pH=8.8. After coating the plates are washed with PBS+0.05% TWEEN®-20 (PBST) and blocked for 2 hours with PBS+0.05% TWEEN® 20+2% non-fat dry milk powder (Nestle) (PBSM). The PE extracts are then incubated for 1 hour on the plate and then washed with PBST followed by 1 hour incubation of 0.5 μg/ml mouse anti-HA tag antibody (16B12, Covance) in PBSM. After washing with PBST, 1.5 μg/ml alkaline phosphatase conjugated anti-mouse antibody (Sigma) in PBSM in added to the plate for 1 hour followed by PBST washing. Finally, the ELISA is developed using 2 mg/ml alkaline phosphatase substrate (Sigma) in AP-buffer (100 mM NaCl, 50 mM MgCl₂, 100 mM Tris pH=9.5) and the optical density signal at 405 nm is measured.
(§2) Next, anti-human/mouse MMR cross-reactive sdAbs were generated (see also Material and Method section). The anti-human/anti mouse MMR phage bank was alternatingly screened on human and mouse MMR for a total of four rounds, resulting in up to 100-fold enrichments for hMMR/mMMR reactive phages from the second panning round. Therefore, 188 colonies from the second and third rounds were selected for PE-expression. These PE-extracts were used in PE-ELISAs to determine which clones react effectively to MMR, clones were selected after the ELISA on hMMR (FIG. 2). These clones were then screened for binding on mouse MMR (FIG. 3).

[2] = molecular target: T2, Recombinant mouse MMR (R&D systems); test: PE-ELISA: periplasmic extract of the clone on plate-coated mouse MMR, OD405; background = irrelevant milk-blocking proteins
Experimental: as §1, §2

| Binder | binding result [1] | binding result [2] |
| --- | --- | --- |
| NbhmMMRm8.67 (VHH, Only tested as periplasmic extract in PE-ELISA; clone carries C-terminal HA and 6xHis tag) VHH: QVQLQESGGGLVQAGDSLRLSCLATGSMFSINAWGWYRQAPGKQRELVASITSGGGSTEYAESVKGRFTISRDSAKNMLYLQMNSLRPEDTAVYYCNAERWDGYALGYSPNHGSGHRPYNYWGQGTQVTVSS | binds | binds |
| NbhmMMRm18.63 (VHH, Only tested as periplasmic extract in PE-ELISA; clone carries C-terminal HA and 6xHis tag) VHH: QVQLQESGGGLVQPGGSLRLSCAPSGSIISINAMAWYRQAPGKERELVAAISSGGSTYYADSVKGRFTISGDIAKNLLWLQMNSLKPEDTAMYYCAPGGGWRPGAWGQGTQVTVSS | binds | binds |
| NbhmMMRm13.89 (VHH, Only tested as periplasmic extract in PE-ELISA; clone carries C-terminal HA and 6xHis tag) VHH: QVQLQESGGGLVQPGGSLRLSCAASGSIFSINAWGWYRQAPGKQRELVAEITSSGSTNYADSVKGRFTISGDNAKNSVYLHMNNLEPEDTAVYYCKAVAVTFTTPRSDYWGRGTQVTVSS | binds | binds |
| NbhmMMRm27.95 (VHH, Only tested as periplasmic extract in PE-ELISA; clone carries C-terminal HA and 6xHis tag) VHH: QVQLQESGGRLGAAGGSLRLSCTASGFPFNIYPMSWVRQAPGKGFEWVSYISHGGTTTDYSDAVKGRFTISRDNAKNRLYLQMDSLKPEDTAVYFCAQGYARLMTDSELVRGQGTQVTVSS | binds | binds |
| NbhmMMRm25.86 (VHH, Only tested as periplasmic extract in PE-ELISA; clone carries C-terminal HA and 6xHis tag) VHH: QVQLQESGGGLVQPGGSLRLSCAGSGFTVSTSMINWARQVPGKELEWLVDVLPSGSTYYADPVKGRFTISRDNAQNTIYLQMNYLKPEDTAIYYCAINRETMPPFRGQGTQVTVSS | binds | binds |
